# Laboratory results from EP4674870A1 (Sunshine Guojian Pharmaceutical (Shanghai) Co., Ltd., dated 2026).
# Positions count from the first letter of the chain named.
# B1: 311V25 (antibody, human IgG1, kappa, L234A L235A, V domains shown)
# VH: EVQLVESGGGLVQPGGSLKLSCAASGFTFSNYWMNWVRQASGKGLEWVGGIRLKSNNYATQYAESVKGRFTISRDDSKNTAYLQMNSLKTEDTAVYYCTPLLLNGMDYWGQGTTVTVSS
# VL: EIVLTQSPDFQSVTPKEKVTITCSASSSVSYMHWYQQKPDQSPKLWIYDTSNLASGVPSRFSGSGSGTDFTLTINSLEAEDAATYYCFQESGYPFTFGQGTKLEIKR
# B2: 311V25-7 (antibody, human IgG1, kappa, L234A L235A, V domains shown)
# VH: B1 VH with N104S
# VL: B1 VL
# B3: 311V31 (antibody, human IgG1, kappa, L234A L235A, V domains shown)
# VH: B1 VH with A59K
# VL: B1 VL
# B4: 311V31-7 (antibody, human IgG1, kappa, L234A L235A, V domains shown)
# VH: B1 VH with A59K, N104S
# VL: B1 VL
# B5: 311V34 (antibody, human IgG1, kappa, L234A L235A, V domains shown)
# VH: B1 VH with A59R
# VL: B1 VL
# B6: 311V34-7 (antibody, human IgG1, kappa, L234A L235A, V domains shown)
# VH: B1 VH with A59R, N104S
# VL: B1 VL
# B7: humanized antibody 72851 (antibody, human IgG1, kappa, L234A L235A, V domains shown)
# VH: QVQLVQSGAEVKKPGASVKVSCKASGYSFTGYTMNWVRQAPGQNLEWIGLINPYSGGTNYNQKFKGRATLTVDTSISTAYMELSRLRSDDTAVYYCASIYQRHDGIAYWGQGTLVTVSS
# VL: EIVLTQSPDFQSVTPKEKVTITCSASSSVNYMHWYQQKPDQSPKLLIKDTSKLASGVPSRFSGSGSGTDFTLTINSLEAEDAATYYCQQWSSSPYTFGGGTKVEIKR
# notes: Humanized from 728H4D9; human IgG1/kappa
# B8: humanized antibody 31122 (antibody, human IgG1, kappa, L234A L235A, V domains shown)
# VH: B1 VH with A59T
# VL: B1 VL
# notes: Humanized from 311C9E10; human IgG1/kappa
# Target: T1, human TL1A-His protein (human, UniProt O95150 72-251)
# T1 construct: also called human TL1A extracellular domain (TL1A-ECD) with 6×His tag
# T1 sequence: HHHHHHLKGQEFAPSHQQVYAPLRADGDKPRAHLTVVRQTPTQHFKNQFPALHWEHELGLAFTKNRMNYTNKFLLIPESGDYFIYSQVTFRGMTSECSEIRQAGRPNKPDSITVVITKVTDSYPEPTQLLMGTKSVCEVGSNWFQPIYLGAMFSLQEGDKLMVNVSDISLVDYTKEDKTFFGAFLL
# Assay: ELISA
row,Molecule,binding result
1,B1,binds
2,B2,binds
3,B3,binds
4,B4,binds
5,B5,binds
6,B6,binds

# Target: T1, human TL1A-His protein
# Assay: SPR (Biacore 8K), antibody captured on Protein A chip, TL1A-his as analyte
Molecule,Kd,koff,kon
positive control antibody PRA023,0.537 nM,0.000166 s⁻¹,308000 M⁻¹ s⁻¹
B7,0.212 nM,0.000212 s⁻¹,1e+06 M⁻¹ s⁻¹
B8,0.394 nM,0.000159 s⁻¹,405000 M⁻¹ s⁻¹
